# Test results as given in IntAct's records for PubMed 20506337.
# B1: AH receptor-interacting protein (Homo sapiens), O00170 (parent)
# chain: MADIIARLREDGIQKRVIQEGRGELPDFQDGTKATFHYRTLHSDDEGTVLDDSRARGKPMELIIGKKFKLPVWETIVCTMREGEIAQFLCDIKHVVLYPLVAKSLRNIAVGKDPLEGQRHCCGVAQMREHSSLGHADLDALQQNPQPLIFHMEMLKVESPGTYQQDPWAMTDEEKAKAVPLIHQEGNRLYREGHVKEAAAKYYDAIACLKNLQMKEQPGSPEWIQLDQQITPLLLNYCQCKLVVEEYYEVLDHCSSILNKYDDNVKAYFKRGKAHAAVWNAQEAQADFAKVLELDPALAPVVSRELRALEARIRQKDEEDKARFRGIFSH
# partner: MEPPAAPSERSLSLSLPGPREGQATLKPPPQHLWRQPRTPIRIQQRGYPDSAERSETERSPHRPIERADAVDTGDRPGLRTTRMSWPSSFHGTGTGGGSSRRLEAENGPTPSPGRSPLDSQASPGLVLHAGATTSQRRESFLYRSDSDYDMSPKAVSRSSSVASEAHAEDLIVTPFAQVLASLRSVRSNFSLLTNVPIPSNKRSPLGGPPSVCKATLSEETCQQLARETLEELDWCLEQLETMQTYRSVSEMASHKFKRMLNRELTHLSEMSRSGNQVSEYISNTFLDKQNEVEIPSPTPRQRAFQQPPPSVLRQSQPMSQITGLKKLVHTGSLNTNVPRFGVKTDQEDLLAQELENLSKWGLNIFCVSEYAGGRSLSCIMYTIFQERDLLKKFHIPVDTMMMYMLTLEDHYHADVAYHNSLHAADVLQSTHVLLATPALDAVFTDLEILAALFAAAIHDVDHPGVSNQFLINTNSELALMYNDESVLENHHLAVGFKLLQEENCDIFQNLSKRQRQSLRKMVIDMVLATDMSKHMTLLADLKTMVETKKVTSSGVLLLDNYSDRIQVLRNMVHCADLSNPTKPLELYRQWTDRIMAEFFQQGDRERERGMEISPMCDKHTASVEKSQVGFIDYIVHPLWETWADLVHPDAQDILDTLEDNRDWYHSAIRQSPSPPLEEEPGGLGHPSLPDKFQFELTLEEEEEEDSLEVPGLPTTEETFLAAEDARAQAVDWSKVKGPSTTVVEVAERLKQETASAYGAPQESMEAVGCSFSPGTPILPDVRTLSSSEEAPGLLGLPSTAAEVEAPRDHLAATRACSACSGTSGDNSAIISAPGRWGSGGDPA
# Variants of: B1
# Details: with pde4a_rat Pde4a
row,Variant,effect of a mutation on the interaction
1,R16H,decreasing interaction strength
2,V49M,with no effect
3,K103R,disrupting interaction strength
4,C238Y,disrupting interaction strength
5,K241E,disrupting interaction strength
6,I257V,decreasing interaction strength
7,R271W,disrupting interaction strength
8,A299V,decreasing interaction strength
9,R304Q,decreasing interaction strength
